The labels stand for the following.
B1: LINE1-full (parent)
chain: UACGUAGGUGGUUUUCCCCUGAUAGUGCUAAGGGGGCCUGGAAGUUUGGACUGGGCAGAGCUCAACACAGCGUGGCAAAGUGGCUGUGGCUAGACUGCCUCUCUGGAUUCCUCGUCACUCAGCAGGGCAUCUCUGAGAGAAAUGCC

The variants in the series derive from B1. Description: self-cleavage, relative activity (ratio to wild type); higher = more cleavage; in vitro, sequencing; the parent is a self-cleaving ribozyme.
For the variant AACGUAGGUGGUUUUCCCCUGAUAGUGCUCAGGGGGCCUGGAAGUUUGGACUGGGCAGAGCUCAACACAGCGUGGCAAAGUGGCUGUGGCUAGACUGCCUCUCUGGAUUCCUCGUCACUCAGCAGGGCAUCUCUGAGAGAAAUGCC, the self-cleavage is 1.44. With AACGUAGGUGGUUUCCCCCUGAUAGUGCUAAGGGGGCCUGGAAGUUUGGACUGGGCAGAGCUCAACACAGCGUGGCAAAGUGGCUGUGGCUAGACUGCCUCUCUGGAUUCCUCGUCACUCAGCAGGGCAUCUCUGAGAGAAAUGCC, the self-cleavage turned out to be 2.17. AACGUAGGUGGUUUUCCCCUGAUAGUGCUAAGGGGGCCUGGAAGUUUGGACUGAGCAGAGCUCAACACAGCGUGGCAAAGUGGCUGUGGCUAGACUGCCUCUCUGGAUUCCUCGUCACUCAGCAGGGCAUCUCUGAGAGAAAUGCC: the self-cleavage was determined as 1.05.

For the variant AACGUAGGUGGUUUUCCCCUGAUAGUGCUAAGGGGGCCUGGAAGUUUGGACUGGGCAGAGCUCAACACAGCGUGGCAAAGUGGCUGAGGCUAGACUGCCUCUCUGGAUUCCUCGUCACUCAGCAGGGCAUCUCUGAGAGAAAUGCC, the self-cleavage turned out to be 0.13.

Take AACGUAGGUGGUUUUCCCCUGUUAGUGCUAAGGGGGCCUGGAAGUUUGGACUGGGCAGAGCUCAACACAGCGUGGCAAAGUGGCUGUGGCUAGACUGCCUCUCUGGAUUCCUCGUCACUCAGCAGGGCAUCUCUGAGAGAAAUGCC: the self-cleavage worked out at 0.41. Consider AACGUAGGUGGUUUUCCCCUGAUAGUGCUAAGGGGGCCUGGAAGUUUGGACUGGGCAGAGCUCAACACAGCAUGGCAAAGUGGCUGUGGCUAGACUGCCUCUCUGGAUUCCUCGUCACUCAGCAGGGCAUCUCUGAGAGAAAUGCC, for which the self-cleavage came to 1.55.

Turning to AAUGUAGGUGGUUUUCCCCUGAUAGUGCUAAGGGGGCCUGGAAGUUUGGACUGGGCAGAGCUCAACACAGCGUGGCAAAGUGGCUGUGGCUAGACUGCCUCUCUGGAUUCCUCGUCACUCAGCAGGGCAUCUCUGAGAGAAAUGCC, the self-cleavage came to 0. AACGUAGGUGGUUUUCCCCUGAUAGUGCUAAGGGGGCCUGGAAGUUUGGACUGGGCAGAGCUCAACACAGCGUGGCAAAGUGGCUGUGGCUAGACUGCCCCUCUGGAUUCCUCGUCACUCAGCAGGGCAUCUCUGAGAGAAAUGCC: the self-cleavage was 1.18. For AACGUAGGUGGUUUUCCCCUGAUAGUGCUAAGGGGGCCUGGAAGUUUGGACUGGGCAGAGCUCAACACAGCGUGGCAAAGUGGCUGUGGCUAGACUGCCUCUCUGGAUUCCUCGUCACUCAGCAGGGCAUCUCUGAGAGAGAUGCC, the self-cleavage was found to be 1.43. With AACGUAGGUGGUUUUCCCCUGAUAGUGCUAAGGGGGCCUGGAAGUUUGGACUGGGCAGAGCUCAACACAGCGUGGCAAAGUGGCUGUGGCUAGACUGCCUCUCUGGAUUCCUCGUCGCUCAGCAGGGCAUCUCUGAGAGAAAUGCC, the self-cleavage stood at 1.37.

Consider AACGUAGGUGGUUCUCCCCUGAUAGUGCUAAGGGGGCCUGGAAGUUUGGACUGGGCAGAGCUCAACACAGCGUGGCAAAGUGGCUGUGGCUAGACUGCCUCUCUGGAUUCCUCGUCACUCAGCAGGGCAUCUCUGAGAGAAAUGCC, for which the self-cleavage was 1.71. Take AACGUAGGUGGUUAUCCCCUGAUAGUGCUAAGGGGGCCUGGAAGUUUGGACUGGGCAGAGCUCAACACAGCGUGGCAAAGUGGCUGUGGCUAGACUGCCUCUCUGGAUUCCUCGUCACUCAGCAGGGCAUCUCUGAGAGAAAUGCC: the self-cleavage turned out to be 0.89.

For AACGUAGGUGGUUUUCCCCUGAUAGUGCUAAGGGGGCCUGGAAGUUUGGACUGGGCAGAGCUCAACACAGCGUGGCAAAGUGGCUGUGGCUAGACUGCCUCUCUGGAUUCCUCGUCACUCAGCAGGGCAUCUCUGGGAGAAAUGCC, the self-cleavage was 1.71.

As to AACGUAGGUGGUUUUCCCCUGAUAGUGCUAAGGGGGCCUGGAAGUUUGGACUGGGCAGAGCUCAACACAGCGUGGCAAAGUGGCUGUGGCUAGACUGCCUCUCUGGAUUCCUCGUCACUCAGCGGGGCAUCUCUGAGAGAAAUGCC, the self-cleavage turned out to be 1.16. With AACGUAGGUGGUUUUCCCCUGAUAGUGCCAAGGGGGCCUGGAAGUUUGGACUGGGCAGAGCUCAACACAGCGUGGCAAAGUGGCUGUGGCUAGACUGCCUCUCUGGAUUCCUCGUCACUCAGCAGGGCAUCUCUGAGAGAAAUGCC, the self-cleavage was 0.84.

As to AACGUAGGUGGUUUUCCCCUGAUAGUGCUAAGGCGGCCUGGAAGUUUGGACUGGGCAGAGCUCAACACAGCGUGGCAAAGUGGCUGUGGCUAGACUGCCUCUCUGGAUUCCUCGUCACUCAGCAGGGCAUCUCUGAGAGAAAUGCC, the self-cleavage worked out at 1.08.

Take AACGUAGGUGGUUUUCCCCUGAUAGUGCUAAGUGGGCCUGGAAGUUUGGACUGGGCAGAGCUCAACACAGCGUGGCAAAGUGGCUGUGGCUAGACUGCCUCUCUGGAUUCCUCGUCACUCAGCAGGGCAUCUCUGAGAGAAAUGCC: the self-cleavage was 0.96.

On to AACGUAGGUGGUUUUCCCCUGAUAGUGCUAAGGGGGCCUGGAAGUUUGGACUGGGCAGAGCUCAACACGGCGUGGCAAAGUGGCUGUGGCUAGACUGCCUCUCUGGAUUCCUCGUCACUCAGCAGGGCAUCUCUGAGAGAAAUGCC, for which the self-cleavage turned out to be 1.2. As for AACGUAGGUGGUUUUCCCCUGAUAGUGCUAAGGGGGCCUGGAAGUUUGGACUGGGCAGAGCUCAACACAGCGUGGCGAAGUGGCUGUGGCUAGACUGCCUCUCUGGAUUCCUCGUCACUCAGCAGGGCAUCUCUGAGAGAAAUGCC, the self-cleavage was found to be 1.66. As for AACGUAGGUGGUUUUCCCCUGAUAGUGCUAAGGGGGCCUGGAAGUUUGGACUGGGCAGAGCUCAACACAGCGUGGCAAAGUGGCUGUGGCUAGACUGCCUCUCUGGAUUCCUCGUCACUCGGCAGGGCAUCUCUGAGAGAAAUGCC, the self-cleavage amounted to 1.73. In the case of AACGUAGGUGGUUUUCCCCUGAUAGGGCUAAGGGGGCCUGGAAGUUUGGACUGGGCAGAGCUCAACACAGCGUGGCAAAGUGGCUGUGGCUAGACUGCCUCUCUGGAUUCCUCGUCACUCAGCAGGGCAUCUCUGAGAGAAAUGCC it was 1.19; in that of AACGUAGGAGGUUUUCCCCUGAUAGUGCUAAGGGGGCCUGGAAGUUUGGACUGGGCAGAGCUCAACACAGCGUGGCAAAGUGGCUGUGGCUAGACUGCCUCUCUGGAUUCCUCGUCACUCAGCAGGGCAUCUCUGAGAGAAAUGCC, 1.15. In the case of AACGUAGGUGGUUUUCCCCUGAUAGUGCUAAGGGGGCCUGGAAGUUUGGACUGGGCAGAGCUCAACACAGCGUGGCAAAGUGGCUGUGGCUAGACUGCCUCUCUGGAUUCCUCGUCACUCAGCAGGGCGUCUCUGAGAGAAAUGCC it was 1.47; in that of AACGUAGGUGGUUUUCCCCUGAUAGUGCUAAGGGGGCCUGGAAGUUUGGACUGGGCAGAGCUCAACACAGCGUGGCAAAGUGGCUGUGGCUUGACUGCCUCUCUGGAUUCCUCGUCACUCAGCAGGGCAUCUCUGAGAGAAAUGCC, 0.32; in that of AACGUAGGUGGUUUUCCCCUGAUAGUGCUAAGGGGGCCUGGAAGUUUGGACUGGGCAGAGCUCAACACAGCGUGGCAAAGUGGCUGUGGCUAGACUGCCUCUCUGGAUACCUCGUCACUCAGCAGGGCAUCUCUGAGAGAAAUGCC, 1.56. Next, AACGUAGGUGGUUUUCCCCUGAUAGUGCUAAGGGGGCCUGGAAGUUUGGACUGGGCAGAGCUCAACACAGCGUGGCAAAGUGGCUGUGGCUAGACUGCCUCUCUGGAUCCCUCGUCACUCAGCAGGGCAUCUCUGAGAGAAAUGCC: 1.05; AACGUAGGUGGUUUUCCCCUGAUAGUGCUAAGGGGGCCUGGAAGUUUGGACUGGGCAGAGCGCAACACAGCGUGGCAAAGUGGCUGUGGCUAGACUGCCUCUCUGGAUUCCUCGUCACUCAGCAGGGCAUCUCUGAGAGAAAUGCC: 0.36. With AACGUAGGUGGUUUUCCCCUGAUAGUGCUAAGGGGGCCUGGAGGUUUGGACUGGGCAGAGCUCAACACAGCGUGGCAAAGUGGCUGUGGCUAGACUGCCUCUCUGGAUUCCUCGUCACUCAGCAGGGCAUCUCUGAGAGAAAUGCC, the self-cleavage came to 0.81. With AACGUAGGUGGUUUUCCCCUGAUAGUGCUAAGGGGGCCUGGAAGUUUGGACUGGGCAGAGCUCAGCACAGCGUGGCAAAGUGGCUGUGGCUAGACUGCCUCUCUGGAUUCCUCGUCACUCAGCAGGGCAUCUCUGAGAGAAAUGCC, the self-cleavage was found to be 0.07.

As for AACGUAGGUGGCUUUCCCCUGAUAGUGCUAAGGGGGCCUGGAAGUUUGGACUGGGCAGAGCUCAACACAGCGUGGCAAAGUGGCUGUGGCUAGACUGCCUCUCUGGAUUCCUCGUCACUCAGCAGGGCAUCUCUGAGAGAAAUGCC, the self-cleavage was 1.4. For the variant AACGUAGGUGGUUUUCCCCUGAUAGUGCUAAGGGGGCCUGGAAGUUUGGACUGGGCAGAGCUCAACACAGCGUGGCAAAGUGGCUGUGGCUAGACUGCCUCUCUGGAUUCCUCGUCACUCAGCAGGGCAUCUCUGAGAGAAGUGCC, the self-cleavage worked out at 1.19. Consider AGCGUAGGUGGUUUUCCCCUGAUAGUGCUAAGGGGGCCUGGAAGUUUGGACUGGGCAGAGCUCAACACAGCGUGGCAAAGUGGCUGUGGCUAGACUGCCUCUCUGGAUUCCUCGUCACUCAGCAGGGCAUCUCUGAGAGAAAUGCC, for which the self-cleavage stood at 1.2. Turning to AACGUAGGUGGUUUUCCCCUGAUAGUGCUAAGGGGGCCCGGAAGUUUGGACUGGGCAGAGCUCAACACAGCGUGGCAAAGUGGCUGUGGCUAGACUGCCUCUCUGGAUUCCUCGUCACUCAGCAGGGCAUCUCUGAGAGAAAUGCC, the self-cleavage is 1.2. Regarding AACGUAGGUGGUUUUCCCCUGAUAGUGCUAAGGGGGCCUGGAAGUUUGGACUGGGCAGAGCUCAACACAGCGUGGCACAGUGGCUGUGGCUAGACUGCCUCUCUGGAUUCCUCGUCACUCAGCAGGGCAUCUCUGAGAGAAAUGCC, the self-cleavage turned out to be 1.65. On to AACGUAGGUGGUUUUCCCCUGAUAGUGCUAAGGGGGCCUGGAAGUUUGGACUGGGCAGAGCUCAACACAGCGUGGCAGAGUGGCUGUGGCUAGACUGCCUCUCUGGAUUCCUCGUCACUCAGCAGGGCAUCUCUGAGAGAAAUGCC, for which the self-cleavage was 0.86. In the case of AACGUAGGUGGUUUUCCCCCGAUAGUGCUAAGGGGGCCUGGAAGUUUGGACUGGGCAGAGCUCAACACAGCGUGGCAAAGUGGCUGUGGCUAGACUGCCUCUCUGGAUUCCUCGUCACUCAGCAGGGCAUCUCUGAGAGAAAUGCC it was 1.64; in that of AACGUAGGUGGUUUUCCCCUGAUAGUGCUAAGGGGGGCUGGAAGUUUGGACUGGGCAGAGCUCAACACAGCGUGGCAAAGUGGCUGUGGCUAGACUGCCUCUCUGGAUUCCUCGUCACUCAGCAGGGCAUCUCUGAGAGAAAUGCC, 0.74; in that of AACGUAGGUGGUUUUCCCCUGAUAGUGCUAUGGGGGCCUGGAAGUUUGGACUGGGCAGAGCUCAACACAGCGUGGCAAAGUGGCUGUGGCUAGACUGCCUCUCUGGAUUCCUCGUCACUCAGCAGGGCAUCUCUGAGAGAAAUGCC, 1.11. In the case of AACGUAGGUGGUUUUCCCCUGAUAGUGCUAAGGGGGCCUGGAAGUUUGGACUGGGCAGUGCUCAACACAGCGUGGCAAAGUGGCUGUGGCUAGACUGCCUCUCUGGAUUCCUCGUCACUCAGCAGGGCAUCUCUGAGAGAAAUGCC it was 0.91.

Values taken from the RNAGym collection of RNA variant scans (doi:10.7554/elife.90254).
